Legend:
[1] = molecular target: individual catalytic domain of human MT5-MMP (human)
[2] = molecular target: individual catalytic domain of human MT6-MMP (human)
[3] = molecular target: individual catalytic domain of human MT2-MMP (human)
[4] = molecular target: individual catalytic domain of human MT4-MMP (human)
[5] = molecular target: individual catalytic domain of human MT3-MMP (human)
Chain of individual catalytic domain of human MT3-MMP (human) (P51512 32-607): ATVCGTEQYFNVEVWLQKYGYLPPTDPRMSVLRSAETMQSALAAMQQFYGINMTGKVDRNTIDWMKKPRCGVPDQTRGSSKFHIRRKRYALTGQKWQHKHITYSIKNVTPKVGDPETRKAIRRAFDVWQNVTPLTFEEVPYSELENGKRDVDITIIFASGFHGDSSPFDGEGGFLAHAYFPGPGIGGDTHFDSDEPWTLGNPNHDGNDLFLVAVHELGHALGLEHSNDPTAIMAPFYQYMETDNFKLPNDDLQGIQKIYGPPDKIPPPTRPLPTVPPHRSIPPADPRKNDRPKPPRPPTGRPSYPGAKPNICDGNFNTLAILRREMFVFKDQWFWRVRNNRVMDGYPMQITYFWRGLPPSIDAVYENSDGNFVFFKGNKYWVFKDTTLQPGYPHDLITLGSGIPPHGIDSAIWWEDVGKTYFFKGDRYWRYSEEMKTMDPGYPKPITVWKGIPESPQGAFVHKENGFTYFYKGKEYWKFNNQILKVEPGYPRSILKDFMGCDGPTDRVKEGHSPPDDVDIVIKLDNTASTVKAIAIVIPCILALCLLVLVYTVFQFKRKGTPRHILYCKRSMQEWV

Chain of individual catalytic domain of human MT2-MMP (human) (P51511 42-669): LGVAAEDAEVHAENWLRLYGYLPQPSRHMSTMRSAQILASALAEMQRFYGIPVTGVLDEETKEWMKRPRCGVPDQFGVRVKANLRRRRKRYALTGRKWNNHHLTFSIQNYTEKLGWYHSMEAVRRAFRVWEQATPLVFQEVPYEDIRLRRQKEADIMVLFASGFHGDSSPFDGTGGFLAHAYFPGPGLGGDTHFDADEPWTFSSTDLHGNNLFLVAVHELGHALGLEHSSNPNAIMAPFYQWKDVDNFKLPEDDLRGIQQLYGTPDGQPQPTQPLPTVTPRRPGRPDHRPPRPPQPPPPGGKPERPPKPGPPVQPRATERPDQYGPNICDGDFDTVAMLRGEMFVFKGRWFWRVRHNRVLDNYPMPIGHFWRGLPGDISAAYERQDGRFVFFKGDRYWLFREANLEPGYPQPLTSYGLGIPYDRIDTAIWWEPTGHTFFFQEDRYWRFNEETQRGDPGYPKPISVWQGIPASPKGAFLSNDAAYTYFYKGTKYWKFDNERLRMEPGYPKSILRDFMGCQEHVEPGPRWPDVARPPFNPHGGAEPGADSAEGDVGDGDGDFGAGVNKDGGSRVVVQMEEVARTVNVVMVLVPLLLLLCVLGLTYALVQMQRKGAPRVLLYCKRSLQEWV
Chain of individual catalytic domain of human MT4-MMP (human) (Q9ULZ9 36-603): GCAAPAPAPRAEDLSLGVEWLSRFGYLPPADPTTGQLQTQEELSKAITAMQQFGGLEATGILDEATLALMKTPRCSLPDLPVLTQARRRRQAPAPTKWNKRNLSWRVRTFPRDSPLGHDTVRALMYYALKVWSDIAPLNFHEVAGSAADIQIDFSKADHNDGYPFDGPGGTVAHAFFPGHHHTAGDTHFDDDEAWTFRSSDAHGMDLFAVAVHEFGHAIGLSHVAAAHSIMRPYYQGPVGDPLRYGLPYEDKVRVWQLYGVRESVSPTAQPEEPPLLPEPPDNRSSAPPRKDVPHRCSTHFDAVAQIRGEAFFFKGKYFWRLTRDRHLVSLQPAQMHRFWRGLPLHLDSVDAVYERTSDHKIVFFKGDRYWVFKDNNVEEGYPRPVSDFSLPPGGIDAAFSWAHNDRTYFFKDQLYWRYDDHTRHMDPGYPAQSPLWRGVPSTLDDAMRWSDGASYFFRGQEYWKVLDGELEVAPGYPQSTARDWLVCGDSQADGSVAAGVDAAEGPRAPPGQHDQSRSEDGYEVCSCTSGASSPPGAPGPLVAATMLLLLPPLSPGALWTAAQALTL
Chain of individual catalytic domain of human MT5-MMP (human) (Q9Y5R2 53-645): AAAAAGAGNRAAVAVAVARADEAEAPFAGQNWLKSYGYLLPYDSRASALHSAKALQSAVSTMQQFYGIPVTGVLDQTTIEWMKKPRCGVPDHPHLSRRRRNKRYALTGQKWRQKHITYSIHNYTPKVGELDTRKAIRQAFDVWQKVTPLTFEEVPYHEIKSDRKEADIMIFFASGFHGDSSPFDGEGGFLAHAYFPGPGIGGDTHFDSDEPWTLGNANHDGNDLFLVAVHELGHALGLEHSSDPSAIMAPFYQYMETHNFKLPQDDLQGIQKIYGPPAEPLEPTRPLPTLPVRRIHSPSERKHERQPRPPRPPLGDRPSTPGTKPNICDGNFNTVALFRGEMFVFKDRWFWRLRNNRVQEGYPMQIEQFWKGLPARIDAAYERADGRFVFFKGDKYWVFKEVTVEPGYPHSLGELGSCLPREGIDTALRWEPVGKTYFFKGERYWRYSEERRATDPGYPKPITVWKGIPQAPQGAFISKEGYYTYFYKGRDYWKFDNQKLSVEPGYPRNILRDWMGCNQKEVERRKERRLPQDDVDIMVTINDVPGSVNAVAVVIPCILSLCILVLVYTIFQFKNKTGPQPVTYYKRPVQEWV
Chain of individual catalytic domain of human MT6-MMP (human) (Q9NPA2 22-562): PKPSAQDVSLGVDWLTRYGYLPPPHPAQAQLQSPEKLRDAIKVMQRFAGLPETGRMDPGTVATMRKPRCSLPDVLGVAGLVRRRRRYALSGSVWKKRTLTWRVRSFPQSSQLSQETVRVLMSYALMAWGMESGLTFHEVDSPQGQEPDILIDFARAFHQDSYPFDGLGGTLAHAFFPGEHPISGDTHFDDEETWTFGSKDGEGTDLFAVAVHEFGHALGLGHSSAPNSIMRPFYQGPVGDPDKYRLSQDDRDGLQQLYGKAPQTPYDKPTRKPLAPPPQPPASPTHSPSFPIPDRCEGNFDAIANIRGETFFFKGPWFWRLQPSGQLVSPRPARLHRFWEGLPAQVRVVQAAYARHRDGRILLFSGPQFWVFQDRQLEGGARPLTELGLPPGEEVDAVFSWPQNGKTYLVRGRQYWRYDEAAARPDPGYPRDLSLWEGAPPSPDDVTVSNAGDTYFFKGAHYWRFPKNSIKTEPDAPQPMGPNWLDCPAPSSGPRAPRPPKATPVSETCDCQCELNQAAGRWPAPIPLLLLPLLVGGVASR

B1: 3A2 Fab (Fab, V domains shown)
VH: EVQLVESGGGLVQPGGSLRLSCAASGFNLSSSSMHWVRQAPGKGLEWVASIYPSYSYTYYADSVKGRFTISADTSKNTAYLQMNSLRAEDTAVYYCARVKLQKDKSHQWIRNLVATPYGRYVMDYWGQGTLVTVSS
VL: DIQMTQSPSSLSASVGDRVTITCRASQSVSSAVAWYQQKPGKAPKLLIYSASSLYSGVPSRFSGSRSGTDFTLTISSLQPEDFATYYCQQYGYPITFGQGTKVEIK
[1]
  IC50 of inhibition of the CAT of MT5-MMP (5 nM), cleavage of Mca-PLGL-Dpa-AR-NH2 (1 uM); 3A2 Fab 0-5,000 nM: 425 nM
[2]
  IC50 of inhibition of the CAT of MT6-MMP (5 nM), cleavage of Mca-PLGL-Dpa-AR-NH2 (1 uM); 3A2 Fab 0-5,000 nM: > 5000 nM
[3]
  IC50 of inhibition of the CAT of MT2-MMP (5 nM), cleavage of Mca-PLGL-Dpa-AR-NH2 (1 uM); 3A2 Fab 0-5,000 nM: 1800 nM
[4]
  IC50 of inhibition of the CAT of MT4-MMP (5 nM), cleavage of Mca-PLGL-Dpa-AR-NH2 (1 uM); 3A2 Fab 0-5,000 nM: > 5000 nM
[5]
  IC50 of inhibition of the CAT of MT3-MMP (5 nM), cleavage of Mca-PLGL-Dpa-AR-NH2 (1 uM); 3A2 Fab 0-5,000 nM: 335 nM

From publication PMC5356841
